Results: patent US20040170622A1, “Methods and compositions for modulating XBP-1 activity” (President and Fellows of Harvard College, priority 2002, published 2004)

How the values were obtained:
IL-6 = IL-6 production by retrovirally transduced wt and XBP-1-/- B cells (ELISA, Northern blot); assay type: cell-based, murine; conditions: wild type and XBP-1-/- cells
Method: (§1) Assays to measure immunoglobulin or cytokine levels in culture supernatants were performed as described (e.g., Hodge et al., 1996 Immunity. 4:397-405 or Science. 1996 274:1903-5).
(§2) The XBP-1 cDNAs for the unspliced (XBP-1u/s) and the spliced (XBP-1s) forms were PCR-amplified from the total RNA of untreated and tunicamycin treated NIH3T3 cells, respectively, with a primer set (5′-[…]-3′ (SEQ ID NO: 7) and 5′-[…]-3′) (SEQ ID NO: 8). XBP-1u form was generated by a PCR-based mutagenesis from XBP-unspliced/s cDNA so that the two G residues at position 532 and 535 were changed to A without changing amino acid sequences in the XBP-1u open reading frame. Numbers are based on the sequences from gene bank database (NM_013842 [gi:13775155]). These XBP-1 cDNAs were inserted into the GFP-RV retroviral vector by using blunt end ligation (Sambrook et al., 1989). EFFECTENE transfection (Quiagen) was used to introduce the DNA into the Phoenix cell line as described by manufacturer (e.g., Reimold et al., 2001 Nature. 412:300-7 or Int Immunol. 2001 13:241-8). Viral supernatants were harvested after 48 hours and frozen at −80° C. for later use. B cells were purified from mouse spleens using CD43 depletion or positive selection with B220+ magnetic beads as described by the manufacturer (MidiMacs, Miltenyi Biotech). B cell purity was generally near 95% as confirmed by flow cytometry. The B cells (10^6 cells /ml) were then activated in culture with LPS 10 μg/ml and F (ab′)2 anti-IgM (5 μg/ml Southern Biotechnology Associates Inc.) for 24 hours. The 1 ml of activated B cells (10^6 cells/ml) were mixed with 4 μg of polybrene and 1 ml of virus-containing supernatant and spun at 1000 g for 45 minutes at 24° C. Cells were incubated for 24-36 h at 37° C. and then GFP+ cells were flow sorted and returned to culture with and without stimulation.
In human multiple myeloma cells, XBP-1 was induced by IL-6 treatment and implicated in the proliferation of malignant plasma cells (Wen et al., 1999). However, no role for IL-6 in upregulating XBP-1 transcripts or in mediating splicing of XBP-1 RNA in mature B cells has been described (FIG. 6A). The ability of XBP-1 to induce IL-6 production in wt and XBP-1^−/− primary B cells was tested. As described above, in vitro activated murine splenic B cells were transduced using retroviruses expressing bicistronic mRNA for XBP-1u/s, XBP-1s, XBP-1u and control GFP. After cell sorting, GFP^+ cells were stimulated with LPS and assayed for cytokine production after 72 h. In FIG. 6 panel (A) purified B cells from wt and XBP-1^−/− mice were activated in culture with LPS 10 μg/ml and F(ab′)2 anti-IgM (5 μg/ml ) for 24 hours. Retroviral transduction with GFP alone (GFP-Rv), XBP-1u/s (XBP-1 u/s GFP Rv), XBP-1s (XBP-1s GFP Rv) or XBP-1u (XBP-1u GFP Rv) of activated B cells was performed. Cells were incubated for 24-36 h at 37° C. and then GFP+ cells were flow sorted and then returned to culture with LPS stimulation (10 μg/ml) for 72 h. Cytokine production was analyzed by ELISA from culture supernatants of stimulated B cells. Experiments were done at least three times and standard deviation is shown. In panel (B) Total RNAs were prepared from stimulated B cells above and XBP-1 mRNA levels were determined by Northern blot analysis with γ-actin control

XBP-1s = assay: UPRE-luciferase reporter in NIH3T3 cells; assay type: cell-based
Method: (A) Ubiquitination of XBP-1 in HeLa cells were cotransfected with XBP-1u and His-tagged ubiquitin expression plasmids. (B) Degradation rates of XBP-1u and XBP-1s proteins were determined by pulse labeling J558 cells with ^35S Met/Cys for 1 hr and chasing for the indicated times. (C) Effect of XBP-1u on XBP-1s dependent UPRE activation in PI-treated NIH3T3 cells with 8-fold excess of XBP-1u plasmids. Transfected cells were treated with MG-132 for 16 hrs before harvesting for luciferase assays. Values represent fold induction of activity compared to the reporter alone after normalizing to Renilla. (D) Generation and expression of lysine to arginine XBP-1u mutants. Two or three lysine residues in the C-terminus of XBP-1u were replaced by arginine to generate XBP-1uKK (235, 252) and XBP-1uKKK(146, 235, 252) by site-directed mutagenesis. dn-XBP contains the N-terminal 188 aa of XBP-1u. Western blot analysis was performed with NIH3T3 extracts transfected with the indicated plasmids. E) Inhibition of XBP-1 dependent activation of the UPRE reporter in NIH 3T3 cells by XBP-1u lysine to arginine mutants.
Two or three lysine residues in the C-terminus of XBP-1u were replaced by arginines to generate XBP-1uKK (K235R, K252R) and XBP-1uKKK(K146R, K235R, K252R) by site-directed mutagenesis (Iwakoshi et al.2003 Nature Immunology 4: 321-329). dn-XBP contains the N-terminal 188 aa of XBP-1u. NTH3T3 cells were transfected by using the Lipofectamine2000 reagent as recommended by the manufacturer (Invitrogen, Carlsbad, Calif.) with indicated amount of UPRE (UPR element) reporter (Wang et al. 2000 J Biol Chem 275: 27013-27020) and various effector plasmids. Cells were treated for 16 hours before harvest in certain experiments. Cells were lysed in passive lysis buffer for dual luciferase assays according to the manufacturer's protocol (Promega, Madison, Wis.).

XBP-1 = assay: XBP-luciferase reporter in NIH3T3 cells; assay type: cell-based; conditions: in the presence of 5 uM MG-132; with unspliced XBP-1 (41.9 without)
Method: The fold induction of luciferase was measured in NIH3T3 cells bearing XBP-luciferase. The constructs included four copies of the XBP-1 target sequence TGGATGACGTGTACA (SEQ ID NO: 9) fused to the minimal promoter of the mouse RANTES gene (Clauss et al. Nucleic Acids Research 1996. 24:1855) or five copies of the ATF6/XBP-1 target […] (SEQ ID NO: 10) and comprising −53/+45 of the cfos promoter (J. Biol. Chem. 275:27013). In the presence of 5 uM MG-132, the presence of unspliced XBP-1 inhibits the fold induction of luciferase from 41.9 to 5.8. Thus, in the presence of proteasome inhibitors, the unspliced protein blocks the function of the spliced protein.

XBP-1^−/− B cells = assay: Ig production by retrovirally transduced XBP-1-/- primary B cells (ELISA); assay type: cell-based, mouse; conditions: LPS 10 μg/ml 72 h
Method: as §1, §2
The effects of these three different forms of XBP-1 on Ig secretion were compared in wild type and XBP-1^−/− B cells. In vitro activated splenic B cells were transduced using retroviruses expressing bicistronic mRNA encoding XBP-1u/s, XBP-1s, XBP-1u or control GFP. In FIGS. 5(A) and (B) purified B cells from wt and XBP-1^−/− mice were activated in culture with LPS 10 μg/ml and F (ab′)2 anti-IgM (5 μg/ml) for 24 hours. Retroviral transduction with GFP alone (GFP-Rv), XBP-1u/s (XBP-1u/s GFP Rv), XBP-1s (XBP-1s GFP Rv) or XBP-1u (XBP-1u GFP Rv) of activated B cells was performed. Cells were incubated for 24-36 h at 37° C. and then GFP+ cells were flow sorted and then returned to culture with LPS stimulation (10 μg/ml) for 72 h. IgM panel(A) and IgG2b panel (B) production analyzed by ELISA from culture supernatants of stimulated B cells. Experiments were done at least three times and standard deviation is shown.

B1: XBP-1u: murine XBP-1 with point mutations at loop positions −1 and +3; yields only unspliced 33 K protein (protein)
chain: MVVVAAAPSAATAAPKVLLLSGQPASGGRALPLMVPGPRAAGSEASGTPQARKRQRLTHLSPEEKALRRKLKNRVAAQTARDRKKARMSELEQQVVDLEEENHKLQLENQLLREKTHGLVVENQELRTRLGMDTLDPDEVPEVEAKGSGVRLVAGSAESAALRLCAPLQQVQAQLSPPQNIFPWTLTLLPLQILSLISFWAFWTSWTLSCFSNVLPQSLLVWRNSQRSTQKDLVPYQPPFLCQWGPHQPSWKPLMNSFVLTMYTPSL
- IL-6 amounts expressed (IL-6): moderate amounts of IL-6
- UPRE reporter activity (XBP-1s; in the absence of treatment): but not XBP-1u, greatly increased reporter activity
- effect on transactivation of UPRE reporter by XBP-1s (XBP-1s; in the presence of MG-132, 16 hrs, 8-fold excess of XBP-1u plasmid): significantly suppressed transactivation of the reporter by XBP-1s
- fold induction of luciferase (XBP-1): 5.8
- secretion of IgG2b compared to control cells (XBP-1^−/− B cells): unable to increase IgG secretion
- secretion of IgM compared to control cells (XBP-1^−/− B cells): unable to increase IgM secretion
